The target of the assay is VEGF mitogenic receptors. Briefly: cell-based or functional assay.

Experimental findings from patent publication US20020065240A1 are described below.

B1: recombinant human VEGF145, P15692 207-395 (ligand)
chain: APMAEGGGQNHHEVVKFMDVYQRSYCHPIETLVDIFQEYPDEIEYIFKPSCVPLMRCGGCCNDEGLECVPTEESNITMQIMRIKPHQGQHIGEMSFLQHNKCECRPKKDRARQEKKSVRGKGKGQKRKRKKSRYKSWSVCDKPRR
The molecule B1 registered a half-maximal activity, HUVEC mitogenesis ([3H]thymidine incorporation) of 17 to 19 ng/mL.
